Reference: patent publication US20110159037A1

What was measured:
[1] = molecular target: Centromere B (Homo sapiens (Human)) (UniProt P07199); assay: Luminex AtheNA Multi-Lyte ANA Test, 0.15 µg mab per test
[2] = molecular target: Histones; assay: as above
[3] = molecular target: HIV-1 envelope gp41 (virus of the PBMC neutralization assay) (HIV-1, isolate not stated)
[4] = molecular target: Ro (SSA); assay: Luminex AtheNA Multi-Lyte ANA Test, 0.15 µg mab per test
[5] = molecular target: Mab 4E10

IgG1b12 (antibody)
relative units (relative units based on a standard curve) [1]: 479
relative units (relative units based on a standard curve) [2]: 185

98-6 (antibody)
HIV Neutralization ID50 In PBMC assay [3]: 3.5 µg/mL

Mab 4E10 (antibody)
relative units (relative units based on a standard curve) [4]: 221

Mab 2F5 (antibody)
relative units (relative units based on a standard curve) [4]: 290
relative units (relative units based on a standard curve) [1]: 1780
relative units (relative units based on a standard curve) [2]: 1010
HIV Neutralization ID50 In PBMC assay [3]: 1 µg/mL

soluble HIV-1 Env gp140 oligomers (CON-S)
IC50 [5]: 145 nM

13H11 (antibody)
HIV Neutralization ID50 In PBMC assay [3]: > 50 µg/mL

A32 (antibody)
relative units (relative units based on a standard curve) [1]: 1130
